Assay [1] concerns the target T1, GPR10 (Mus musculus, UniProt Q6VMN6).
T1 construct: from tissue; host or cells: brain of living C57BL/6J mice (lean and ob/ob), intracerebroventricular dosing
T1 sequence (Q6VMN6 1-370): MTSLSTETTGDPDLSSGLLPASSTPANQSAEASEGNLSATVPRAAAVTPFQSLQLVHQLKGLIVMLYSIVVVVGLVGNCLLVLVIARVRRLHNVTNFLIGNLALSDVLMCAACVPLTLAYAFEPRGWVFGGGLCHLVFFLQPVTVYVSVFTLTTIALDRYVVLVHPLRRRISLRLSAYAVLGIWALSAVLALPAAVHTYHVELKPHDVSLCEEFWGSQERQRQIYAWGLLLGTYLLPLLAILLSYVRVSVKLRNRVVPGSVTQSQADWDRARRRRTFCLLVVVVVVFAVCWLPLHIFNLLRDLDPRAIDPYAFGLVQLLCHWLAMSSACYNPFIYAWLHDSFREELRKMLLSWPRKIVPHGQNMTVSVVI
Nature of the assay: Food intake after intracerebroventricular injection of PrRP in mice. The settings on record: 0.1, 1, 5, 10 mg PrRP intracerebroventricular vs saline, measured for two hours after treatment. Type of assay: in vivo. The procedure:
A 31 amino acid amidated synthetic peptide having the sequence of rat PrRP ([…]-NHz; SEQ ID NO:4; Hinuma et al., (1998) Nature 393:272-76) was used to examine the effect of GPR10 modulators on food intake.
Male and female lean and male obese ob/ob C57BL/6J mice were individually housed in macrolon cages (22±2° C.; 12:12 hr light:dark cycle with lights off at 6 pm). Tap water and mouse chow were given ad libitum. Mice were stereoaxically implanted with a chronic guide cannula aimed to the third ventricle (intracerebroventricular) one week prior to the initiation of the experiment.
Mice (15/group) were treated with […] of PrRP peptide or saline (control) by intracerebroventricular injections at 9:00 am. Food intake was measured for two hours after treatment.

The target of the next assay is T2, hGR3 (Homo sapiens, UniProt P49683).
T2 sequence (P49683 1-370): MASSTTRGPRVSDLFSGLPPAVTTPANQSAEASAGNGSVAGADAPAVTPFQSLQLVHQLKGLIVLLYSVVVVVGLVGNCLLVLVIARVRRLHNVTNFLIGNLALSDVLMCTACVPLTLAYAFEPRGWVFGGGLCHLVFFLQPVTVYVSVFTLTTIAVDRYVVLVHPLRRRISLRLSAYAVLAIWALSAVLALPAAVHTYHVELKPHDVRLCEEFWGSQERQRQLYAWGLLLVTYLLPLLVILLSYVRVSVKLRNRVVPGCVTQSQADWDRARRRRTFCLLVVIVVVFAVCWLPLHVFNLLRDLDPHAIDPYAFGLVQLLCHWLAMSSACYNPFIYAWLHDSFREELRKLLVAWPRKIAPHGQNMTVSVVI
The settings on record: receptor expressed in human pituitary, nearly identical to GPR10; cited from earlier work.

Assay [2] relates to anterior pituitary cells of lactating rats. As to conditions: anterior pituitary cells of lactating rats in vitro; cited from earlier work.
In assay [3] the target is T1, GPR10. The experiment in a line: Metabolic rate of mice in an open-circuit calorimeter after intracerebroventricular PrRP. Type of assay: in vivo. The settings on record: 5 μg PrRP intracerebroventricular vs saline. The procedure: The effect of a 5 μg dose of PrRP on the metabolic rate of male mice denied or permitted access to food was investigated as follows. Male C57BL/6J mice maintained as described above were placed in an open-circuit calorimeter coupled to a feeding monitor. The mice were administered 5 μg of PrRP or saline intracerebroventricularly at 1 hr and 45 min after the start of metabolic monitoring. One group (n=6) of mice was allowed access to food and one group of mice (n=6) was not allowed access to food. Respiratory quotient was calculated as the ratio of CO2 production/O2 consumption. Metabolic rate (kcal/g/h) was computed based on O2 consumption and respiratory rate quotient.

No end group written: not given here.

In the case of “PrRP: 31 amino acid amidated synthetic peptide having the sequence of rat PrRP (SRAHQHSMETRTPDINPAWYTGRGIRPVGRF-NHz; SEQ ID NO:4); a GPR10 ligand (SRAHQHSMETRTPDINPAWYTGRGIRPVGRF-NH2; listed as Mus musculus)”, the food intake entry with GPR10 [1] (lean female C57BL/6J mice, FIG. 4) was “increased food intake”; with GPR10 [1] (lean male C57BL/6J mice, FIG. 3), “increased food intake”; in the assay with GPR10 [1] (male obese ob/ob C57BL/6J mice, FIG. 5), “increased food intake”. Moreover, the “binding to hGR3” value with hGR3 was “binds to hGR3”. For the same substance, the release of prolactin result in assay [2] is recorded as “stimulates release of prolactin”. Moreover, the metabolic rate entry was “increases the metabolic rate” with GPR10 [3] (lean male C57BL/6J mice having access to food, FIG. 7) and “increases the metabolic rate” with GPR10 [3] (lean male C57BL/6J mice having no access to food, FIG. 6).

The record behind these values is patent US6537765B2, “GPR10 as a target for identifying weight modulating compounds” (Millennium Pharmaceuticals, Inc., priority 1998, dated 2003).
